Data from patent US20250122280A1, “ANTI-Ly6E ANTIBODIES, IMMUNOCONJUGATES, AND USES THEREOF” (Genentech, Inc., priority 2022, published 2025).
Values belong to the binder of their own block, whether it stands above or below them.

What was measured:
[1] = molecular target: T1, Ly6E on cell lines known to express Ly6E (Kuramochi, NCI-H1781, HCC1569x2) (human, UniProt Q16553 21-101); assay: flow cytometry on NCI-H1781 cells
T1 construct: It is endogenous on human cancer cell lines; also called cell-surface Ly6E
T1 sequence: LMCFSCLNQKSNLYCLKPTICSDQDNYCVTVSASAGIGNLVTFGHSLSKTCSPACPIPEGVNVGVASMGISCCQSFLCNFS

[2] = molecular target: T1, Ly6E on cell lines known to express …; assay: flow cytometry of Fabs on NCI-H1781 cells
Method: (§1) Cell lines were cultured as recommended by the ATCC. Prior to staining adherent lines were released by Accutase treatment, all cells were filtered and equilibrated in BD Stain buffer (BSA). […] Samples were fixed in 1% PFA (PBS) prior to analysis. Samples were assessed on a BD LSRFortessa. Following exclusion of dead cells, singlets were assessed for antibody binding using FlowJo software (FIGS. 2A-2C).

[3] = molecular target: T1, Ly6E on cell lines known to express …; assay: cell-based or functional assay
[4] = molecular target: T1, Ly6E on cell lines known to express …; assay: flow cytometry on Kuramochi cells
Method: as §1

B2: Fab of humanized anti-Ly6E variant LC D92S (Fab, V domains shown)
VH: EVQLVESGGGLVQPGGSLKLSCAASGFTFSTVAMHWVRQASGKGLEWVGRIRTKPVNYETYYADSVKGRFTISRDDSKSTVYLQMNSLKTEDTAVYYCSAPNYYDGTYSFAYWGQGTLVTVSS
VL: DIQMTQSPSSLSASVGDRVTITCKASQNVGSNVDWYQQKPGKAPKLLIYKASNRYTGVPSRFSGSGSGTDFTFTISSLQPEDIATYYCMQSSTKYTFGQGTKVEIKR
notes: Fab made by proteolysis of the IgG; also called 3A3.v2.D92S
EC50 (read off the curve) [2]: ~10 nM

B3: Fab of humanized anti-Ly6E variant LC D92E (Fab, V domains shown)
VH: EVQLVESGGGLVQPGGSLKLSCAASGFTFSTVAMHWVRQASGKGLEWVGRIRTKPVNYETYYADSVKGRFTISRDDSKSTVYLQMNSLKTEDTAVYYCSAPNYYDGTYSFAYWGQGTLVTVSS
VL: DIQMTQSPSSLSASVGDRVTITCKASQNVGSNVDWYQQKPGKAPKLLIYKASNRYTGVPSRFSGSGSGTDFTFTISSLQPEDIATYYCMQSETKYTFGQGTKVEIKR
notes: Fab made by proteolysis of the IgG; also called 3A3.v2.D92E
EC50 (read off the curve) [2]: ~10 nM

Other lines, results leading:

EC50 (read off the curve) [1]: ~2 µg/mL
B1: humanized anti-Ly6E (comprising SEQ ID NOs. 3 and 5) (antibody, human IgG1, kappa, V domains shown)
VH: EVQLVESGGGLVQPGGSLKLSCAASGFTFSTVAMHWVRQASGKGLEWVGRIRTKPVNYETYYADSVKGRFTISRDDSKSTVYLQMNSLKTEDTAVYYCSAPNYYDGTYSFAYWGQGTLVTVSS
VL: DIQMTQSPSSLSASVGDRVTITCKASQNVGSNVDWYQQKPGKAPKLLIYKASNRYTGVPSRFSGSGSGTDFTFTISSLQPEDIATYYCMQSETKYTFGQGTKVEIKR
notes: also called the humanized version; 3A3.v2.D92E

potency difference from non-target control, 5 day anti-proliferation assay (CellTiter-Glo), cell line NCl-H1781 [3]: > 400 fold
B4: chimeric (Ch) Ly6E 3A3 ThioMab drug conjugate with SN36325 (antibody, V domains shown)
VH: AVQLVEFGGGLVQPKESLKISCAASGFTFSTVAMHWVRQAPGKGLEWIARIRTKPVNYETYYADSVKGRFTISRDDSKSMVYLQMDNLKTEDAAMYYCSAPNYYDGTYSFAYWGQGTLVTVSS
VL: DIVMTQSPTSISISVGERVTMNCKASQNVGSNVDWYQQKTGQSPELLIYKASNRYTGVPGRFTGSGSGTDFTFTISNLQAEDLAVYYCMQSDTKYTFGAGTKVEIKR
modifications: engineered cysteine carrying the SN36325 (seco-CBI-dimer) linker-drug on heavy and/or light chain; position not stated

binding result [4]: binds
B5: chimeric anti-Ly6E antibody clone 3A3 (rat-human chimeric antibody) (antibody, human IgG1, kappa, V domains shown)
VH: AVQLVEFGGGLVQPKESLKISCAASGFTFSTVAMHWVRQAPGKGLEWIARIRTKPVNYETYYADSVKGRFTISRDDSKSMVYLQMDNLKTEDAAMYYCSAPNYYDGTYSFAYWGQGTLVTVSS
VL: DIVMTQSPTSISISVGERVTMNCKASQNVGSNVDWYQQKTGQSPELLIYKASNRYTGVPGRFTGSGSGTDFTFTISNLQAEDLAVYYCMQSDTKYTFGAGTKVEIKR
notes: Rat variable domains on human IgG1/kappa constant regions; also called Ch Ly6E 3A3
